Laboratory results as given in paper PMC9434101 (The EMBO Journal, 2022).
Ends that are not written are not given here.

Key:
[1] = target: T1, 6xHis-tagged AIFM1(103–613) (UniProt O95831 103-613); assay: ITC
[2] = target: T1, 6xHis-tagged AIFM1(103–613); assay: ITC; remark: listed apart in the source

T1 sequence (O95831 103-613): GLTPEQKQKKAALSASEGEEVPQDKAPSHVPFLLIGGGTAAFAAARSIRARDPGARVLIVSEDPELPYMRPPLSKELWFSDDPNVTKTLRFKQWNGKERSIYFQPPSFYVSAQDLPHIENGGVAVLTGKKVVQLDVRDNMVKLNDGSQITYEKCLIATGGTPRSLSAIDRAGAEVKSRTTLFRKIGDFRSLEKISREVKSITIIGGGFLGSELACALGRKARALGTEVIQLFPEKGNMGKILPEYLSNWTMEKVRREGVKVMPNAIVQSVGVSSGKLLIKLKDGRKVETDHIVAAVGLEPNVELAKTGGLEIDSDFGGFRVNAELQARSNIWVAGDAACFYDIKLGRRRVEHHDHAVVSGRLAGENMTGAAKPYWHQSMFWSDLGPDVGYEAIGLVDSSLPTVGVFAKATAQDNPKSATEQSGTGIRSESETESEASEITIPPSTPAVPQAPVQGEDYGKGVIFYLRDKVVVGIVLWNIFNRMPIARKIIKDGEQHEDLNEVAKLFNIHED

B1: recombinant full-length MIA40/CHCHD4^C4S,C53S,C55S (natural protein)
chain: MSYSRQEGKDRIIFVTKEDHETPSSAELVADDPNDPYEEHGLILPNGNINWNSPSLGGMASGPCGEQFKSAFSCFHYSTEEIKGSDCVDQFRAMQECMQKYPDLYPQEDEDEEEEREKKPAEQAEETAPIEATATKEEEGSS
[1]
  stoichiometry N: 2 AIFM1 per MIA40/CHCHD4

B2: CHCHD4/MIA40 peptide (unlabeled), GSEGKDRIIFVTKEDHETPSSAEL-NH2 (peptide)
peptide: GSEGKDRIIFVTKEDHETPSSAEL-NH2
[2]
  Kd: 2940 nM
